The target of the assay is SARS-CoV-2 BA.4/5+K444T Spike on pseudovirus (SARS-CoV-2), P0DTC2. As to the kind of experiment: cell-based or functional assay.

B1: AB-1 (antibody, V domains shown)
VH: EVQLVESGAEVKKPGESLKISCKGSGYTFTRYWIGWVRQMPGKGLEWMGIIYPGDSDVRYSPSFQGHVTISADKSISTAYLQWNSLKASDTAMYYCARLPQYCSKGVCYRWFDPWGQGTLVTVSS
VL: EIVLTQSPSSVSASVGDRVTITCRASQGISSWLAWYQQKPGKAPKLLIYAASSLQSGVPSRFSGSGSGTDFTLTISSLQPEDFATYYCQQGHSFPYTFGQGTNLEIK
Regarding B1, the IC50, pseudovirus neutralization amounted to 9.4 ng/mL.

(Values after US20240360203A1.)
